Among the data in patent US20140171373A1 (REGENTS OF THE UNIVERSITY OF MINNESOTA, published 2014) are Ki values, retold here.

For orientation: Ki means the dissociation constant of the complex between target and ligand, obtained from inhibition or displacement.

Test in all cases: competitive binding assay (PROMEGA-GLO 2)
The target of assay [1] is T1, caspase-6 (UniProt P55212 24-179; P55212 194-293, limits assumed).
T1 sequence (looked up) 1: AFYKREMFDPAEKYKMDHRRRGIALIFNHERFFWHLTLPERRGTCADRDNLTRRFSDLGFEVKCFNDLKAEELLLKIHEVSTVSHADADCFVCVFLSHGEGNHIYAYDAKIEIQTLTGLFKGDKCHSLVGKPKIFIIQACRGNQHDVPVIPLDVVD
T1 sequence (looked up) 2: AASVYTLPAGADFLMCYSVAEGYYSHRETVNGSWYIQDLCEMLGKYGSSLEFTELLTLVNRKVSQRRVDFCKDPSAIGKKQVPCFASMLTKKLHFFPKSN

Assay [2] has as its target T2, caspase-3 (UniProt P42574 29-277, limits assumed).
T2 sequence (looked up): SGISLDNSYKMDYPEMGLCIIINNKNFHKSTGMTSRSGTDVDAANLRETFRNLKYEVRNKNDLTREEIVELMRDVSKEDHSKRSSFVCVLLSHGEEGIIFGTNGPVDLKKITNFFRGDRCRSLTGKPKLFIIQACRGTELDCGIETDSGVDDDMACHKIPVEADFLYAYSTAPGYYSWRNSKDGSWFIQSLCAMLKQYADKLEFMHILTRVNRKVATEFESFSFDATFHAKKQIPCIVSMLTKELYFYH

Assay [3] addresses T3, caspase-2 (UniProt P42575 170-325; P42575 334-452, limits assumed).
T3 construct: also called recombinant caspase-2
T3 sequence (looked up) 1: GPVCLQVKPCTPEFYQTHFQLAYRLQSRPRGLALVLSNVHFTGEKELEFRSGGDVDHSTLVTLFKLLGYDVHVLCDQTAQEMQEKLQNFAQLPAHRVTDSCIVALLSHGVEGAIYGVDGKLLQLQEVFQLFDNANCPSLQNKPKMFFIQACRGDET
T3 sequence (looked up) 2: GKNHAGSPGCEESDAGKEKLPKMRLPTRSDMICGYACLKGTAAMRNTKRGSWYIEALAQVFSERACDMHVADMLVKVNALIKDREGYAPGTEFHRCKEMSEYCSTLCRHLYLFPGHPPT

B1: Ac-YKPVD-CHO (SEQ ID NO: 1) (peptide)
peptide: Ac-YKPVD-aldehyde
SMILES: CC(=O)N[C@@H](Cc1ccc(O)cc1)C(=O)N[C@@H](CCCCN)C(=O)N1CCC[C@H]1C(=O)N[C@H](C(=O)N[C@H](C=O)CC(=O)O)C(C)C
notes: Designed to mimic the caspase-2 cleavage site of tau; also called parent pentapeptide; Tyr-Lys-Pro-Val-Asp
In the case of B1, the values for the Ki in assay [1], in assay [2] and in assay [3] were 184 µM, 19.8 µM and 0.2 µM, respectively.
